The values that follow come from paper PMC2132560 (The Journal of Cell Biology, 1997).

B1: recombinant hnRNP A1 protein (natural protein, human, UniProt P09651-2 1-320, looked up)
chain: MSKSESPKEPEQLRKLFIGGLSFETTDESLRSHFEQWGTLTDCVVMRDPNTKRSRGFGFVTYATVEEVDAAMNARPHKVDGRVVEPKRAVSREDSQRPGAHLTVKKIFVGGIKEDTEEHHLRDYFEQYGKIEVIEIMTDRGSGKKRGFAFVTFDDHDSVDKIVIQKYHTVNGHNCEVRKALSKQEMASASSSQRGRSGSGNFGGGRGGGFGGNDNFGRGGNFSGRGGFGGSRGGGGYGGSGDGYNGFGNDGSNFGGGGSYNDFGNYNNQSSNFGPMKGGNFGGRSSGPYGGGGQYFAKPRNQGGYGGSSSSSSYGSGRRF
B2: GST-transportin1 fusion protein (natural protein)
chain: MEYEWKPDEQGLQQILQLLKESQSPDTTIQRTVQQKLEQLNQYPDFNNYLIFVLTKLKSEDEPTRSLSGLILKNNVKAHFQNFPNGVTDFIKSECLNNIGDSSPLIRATVGILITTIASKGELQNWPDLLPKLCSLLDSEDYNTCEGAFGALQKICEDSAEILDSDVLDRPLNIMIPKFLQFFKHSSPKIRSHAVACVNQFIISRTQALMLHIDSFIENLFALAGDEEPEVRKNVCRALVMLLEVRMDRLLPHMHNIVEYMLQRTQDQDENVALEACEFWLTLAEQPICKDVLVRHLPKLIPVLVNGMKYSDIDIILLKGDVEEDETIPDSEQDIRPRFHRSRTVAQQHDEDGIEEEDDDDDEIDDDDTISDWNLRKCSAAALDVLANVYRDELLPHILPLLKELLFHHEWVVKESGILVLGAIAEGCMQGMIPYLPELIPHLIQCLSDKKALVRSITCWTLSRYAHWVVSQPPDTYLKPLMTELLKRILDSNKRVQEAACSAFATLEEEACTELVPYLAYILDTLVFAFSKYQHKNLLILYDAIGTLADSVGHHLNKPEYIQMLMPPLIQKWNMLKDEDKDLFPLLECLSSVATALQSGFLPYCEPVYQRCVNLVQKTLAQAMLNNAQPDQYEAPDKDFMIVALDLLSGLAEGLGGNIEQLVARSNILTLMYQCMQDKMPEVRQSSFALLGDLTKACFQHVKPCIADFMPILGTNLNPEFISVCNNATWAIGEISIQMGIEMQPYIPMVLHQLVEIINRPNTPKTLLENTAITIGRLGYVCPQEVAPMLQQFIRPWCTSLRNIRDNEEKDSAFRGICTMISVNPSGVIQDFIFFCDAVASWINPKDDLRDMFCKILHGFKNQVGDENWRRFSDQFPLPLKERLAAFYGV

Test [1] deals with B2. The experiment in a line: native gel or EMSA.
Test [2] addresses RanGTP (UniProt P62826 1-216). The experiment in a line: native gel or EMSA.

In the case of B1, the binding result in test [1] is given as “binds”. On to B2, for which the binding result in test [2] is “binds”.
